Data on two molecules can be found in patent US20110177070A1 (EMERGENT PRODUCT DEVELOPMENT SEATLLE, published 2011).

The target of one experiment is T1, recombinant human TNF-α (human, UniProt P01375 77-233).
T1 construct: also called rhTNF-α
Briefly: dual-ligand ELISA: plate-coated HIL-6, Xceptor, 2 ng/ml TNF-α, anti-human TNF-α-biotin. The method, then:
Added to each well of a 96-well plate was 100 μl human HIL-6 solution (5 μg/ml in PBS, pH 7.2-7.4). The plate was covered, and incubated overnight at 4° C. After washing four times with PBS-T, then 250 μl Blocking buffer was added to each well, the plate was covered, and incubated at room temperature for 2 hours (or at 4° C. overnight). After washing the plate three times with PBS-T, added in duplicate wells to the HIL-6 coated plate was 100 μl/well Xceptor TNFRSF1B::HIL6 samples serially diluted three-fold in Working buffer starting at 300 ng/ml. Negative controls included human gp130-Fc chimera (R&D Systems, Minneapolis, Minn.), Enbrel® (etanercept), and Working buffer only. The plate was covered and incubated at room temperature for 1.5 hours. After washing the plate five times with PBS-T, 100 μl per well recombinant human TNF-α (R&D Systems, Minneapolis, Minn.) to 2 ng/ml in Working buffer was added, the plate was covered, and incubated at room temperature for 1.5 hr. After washing the plate five times with PBS-T, 100 μl per well anti-human TNF-α-biotin (R&D Systems) to 200 ng/ml in Working buffer was added, the plate was covered, and incubated at room temperature for 1.5 hr. […] The absorbance of each well was read at 450 nm.

In experiment [1] the target is Xceptor fusion protein TRU(XT6)-1042. Briefly: sandwich ELISA: Xceptor captured on anti-human IgG-Fc, sIL-6R, anti-human IL-6R-biotin. The procedure:
Added to each well of a 96-well plate was 100 μl goat anti-human IgG-Fc (ICN Pharmaceuticals, Costa Mesa, Calif.) from a 2 μg/ml solution in PBS, pH 7.2-7.4, The plates were covered, and incubated overnight at 4° C. After washing four times with PBS-T, 250 μl Blocking buffer (PBS-T with 3% BSA or 10% normal goat serum) was added to each well, the plate was covered, and incubated at room temperature for 2 hours (or at 4° C. overnight). After washing the plate three times with PBS-T, added in duplicate wells to the anti-human IgG-Fc coated plate was 100 μl/well Xceptor TNFRSF1B::anti-HIL6 samples, positive control anti-human IL-6R(R&D Systems, Minneapolis, Minn.) and negative controls human IgG or human gp130-Fc chimera (R&D Systems), each serially diluted three-fold in Working buffer starting at 300 ng/ml, the plate was covered, and incubated at room temperature for about 1 to 2 hours. After washing the plate five times with PBS-T, added in duplicate wells was 100 μl/well recombinant human sIL-6R(R&D Systems) from a 75 pM solution in Working buffer, the plate was covered, and incubated at room temperature for about 1 to 2 hours. After washing the plate five times with PBS-T, added 100 μl/well anti-human IL-6R-biotin (R&D Systems) from a 100 ng/ml solution in Working buffer, the plate was covered, and incubated at room temperature for about 1 to 2 hours. After washing the plate five times with PBS-T, 100 μl per well horse radish peroxidase-conjugated streptavidin (Zymed, San Francisco, Calif.) diluted 1:4,000 in Working buffer was added, the plate was covered, and incubated at room temperature for 30 minutes. After washing the plate six times with PBS-T, 100 μl per well 3,3,5,5-tetramentylbenzidine (TMB) substrate solution (Pierce, Rockford, Ill.) was added for about 3 to 5 minutes and then the reaction was stopped with 50 μl Stop buffer (1N H₂SO₄) per well. The absorbance of each well was read at 450 nm.

T1 sequence (P01375 77-233 limits assumed): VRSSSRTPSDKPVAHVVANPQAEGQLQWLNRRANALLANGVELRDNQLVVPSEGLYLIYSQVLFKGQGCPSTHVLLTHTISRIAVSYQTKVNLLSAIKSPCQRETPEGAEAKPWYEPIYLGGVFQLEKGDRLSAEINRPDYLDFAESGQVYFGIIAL

B1: Xceptor fusion protein TRU(XT6)-1006 (Fc fusion)
chain: LPAQVAFTPYAPEPGSTCRLREYYDQTAQMCCSKCSPGQHAKVFCTKTSDTVCDSCEDSTYTQLWNWVPECLSCGSRCSSDQVETQACTREQNRICTCRPGWYCALSKQEGCRLCAPLRKCRPGFGVARPGTETSDVVCKPCAPGTFSNTTSSTDICRPHQICNVVAIPGNASMDAVCTSTSPTRSMAPGAVHLPQPVSTRSQHTQPTPEPSTAPSTSFLLPMGPSPPAEGSTGDTGEPKSSDKTHTCPPCPAPEAAGAPSVFLFPPKPKDTLMISRTPEVTCVVVDVSHEDPEVKFNWYVDGVEVHNAKTKPREEQYNSTYRVVSVLTVLHQDWLNGKAYACAVSNKALPAPIEKTISKAKGQPREPQVYTLPPSRDELTKNQVSLTCLVKGFYPSDIAVEWESNGQPENNYKTTPPVLDSDGSFFLYSKLTVDKSRWQQGNVFSCSVMHEALHNHYTQKSLSLSPGQRHNNSSLNTRTQKARHSPNSEVQLLESGGGLVQPGGSLRLSCAASGFTFSQYNMIWVRQAPGKGLEWVSWISSSGGTEYADSVKGRFTISRDNSKNTLYLQMNSLRAEDTAVYYCAKDRGYGSGSYGAYDAFDIWGQGTMVTVSSGGGGSGGGGSGGGGSQDIQMTQSPSSLSASVGDRVTITCQTSQSIDRYLNWYQQKAGEAPKLLIYAASSLQSGVPSRFSGSGSGTDFTLTISSLQPEDFASYYCQQSYRTPRTFGQGTKVEIK
notes: Xceptor TNFRSF1B::anti-HIL6
Regarding B1, in the experiment with recombinant human TNF-α, the binding result is given as “binds”.

B2: recombinant human sIL-6R (receptor)
chain: LAPRRCPAQEVARGVLTSLPGDSVTLTCPGVEPEDNATVHWVLRKPAAGSHPSRWAGMGRRLLLRSVQLHDSGNYSCYRAGRPAGTVHLLVDVPPEEPQLSCFRKSPLSNVVCEWGPRSTPSLTTKAVLLVRKFQNSPAEDFQEPCQYSQESQKFSCQLAVPEGDSSFYIVSMCVASSVGSKFSKTQTFQGCGILQPDPPANITVTAVARNPRWLSVTWQDPHSWNSSFYRLRFELRYRAERSKTFTTWMVKDLQHHCVIHDAWSGLRHVVQLRAQEEFGQGEWSEWSPEAMGTPWTESRSPPAENEVSTPMQALTTNKDDDNILFRDSANATSLPVQD
notes: Bought soluble receptor; also called human soluble IL6R; IL6R alone
Regarding B2, the binding result in experiment [1] is reported as “no binding (tested: Xceptor from 300 ng/ml; sIL-6R 75 pM)”.
